Source: US20210388087A1 (Chugai, published 2021)

B1: H183/L072 VL A25G (antibody, name in Kabat numbering, V domains shown)
VH: QVQLVESGGGLVQPGRSLRLSCAASGFTFSNAWMHWVRQAPGKGLEWVAQIKDKGNAYAAYYAPSVKGRFTISRDDSKNSIYLQMNSLKTEDTAVYYCHYVHYASASTVLPAFGVDAWGQGTTVTVSS
VL: DIVMTQSPLSLPVTPGEPASISCQGSQELVHMNRNTYLHWYQQKPGQAPRLLIYKVSNRFPGVPDRFSGSGSGTDFTLKISRVEAEDVGVYYCAQGTSVPFTFGQGTKLEIK
B2: H183/L072 VL A89K (antibody, name in Kabat numbering, V domains shown)
VH: QVQLVESGGGLVQPGRSLRLSCAASGFTFSNAWMHWVRQAPGKGLEWVAQIKDKGNAYAAYYAPSVKGRFTISRDDSKNSIYLQMNSLKTEDTAVYYCHYVHYASASTVLPAFGVDAWGQGTTVTVSS
VL: DIVMTQSPLSLPVTPGEPASISCQASQELVHMNRNTYLHWYQQKPGQAPRLLIYKVSNRFPGVPDRFSGSGSGTDFTLKISRVEAEDVGVYYCKQGTSVPFTFGQGTKLEIK
B3: H183/L072 VL A25N (antibody, name in Kabat numbering, V domains shown)
VH: QVQLVESGGGLVQPGRSLRLSCAASGFTFSNAWMHWVRQAPGKGLEWVAQIKDKGNAYAAYYAPSVKGRFTISRDDSKNSIYLQMNSLKTEDTAVYYCHYVHYASASTVLPAFGVDAWGQGTTVTVSS
VL: DIVMTQSPLSLPVTPGEPASISCQNSQELVHMNRNTYLHWYQQKPGQAPRLLIYKVSNRFPGVPDRFSGSGSGTDFTLKISRVEAEDVGVYYCAQGTSVPFTFGQGTKLEIK
B4: H183/L072 VL A25V (antibody, name in Kabat numbering, V domains shown)
VH: QVQLVESGGGLVQPGRSLRLSCAASGFTFSNAWMHWVRQAPGKGLEWVAQIKDKGNAYAAYYAPSVKGRFTISRDDSKNSIYLQMNSLKTEDTAVYYCHYVHYASASTVLPAFGVDAWGQGTTVTVSS
VL: DIVMTQSPLSLPVTPGEPASISCQVSQELVHMNRNTYLHWYQQKPGQAPRLLIYKVSNRFPGVPDRFSGSGSGTDFTLKISRVEAEDVGVYYCAQGTSVPFTFGQGTKLEIK
B5: H183/L072 VL A25H (antibody, name in Kabat numbering, V domains shown)
VH: QVQLVESGGGLVQPGRSLRLSCAASGFTFSNAWMHWVRQAPGKGLEWVAQIKDKGNAYAAYYAPSVKGRFTISRDDSKNSIYLQMNSLKTEDTAVYYCHYVHYASASTVLPAFGVDAWGQGTTVTVSS
VL: DIVMTQSPLSLPVTPGEPASISCQHSQELVHMNRNTYLHWYQQKPGQAPRLLIYKVSNRFPGVPDRFSGSGSGTDFTLKISRVEAEDVGVYYCAQGTSVPFTFGQGTKLEIK
B6: H183/L072 VL A25T (antibody, name in Kabat numbering, V domains shown)
VH: QVQLVESGGGLVQPGRSLRLSCAASGFTFSNAWMHWVRQAPGKGLEWVAQIKDKGNAYAAYYAPSVKGRFTISRDDSKNSIYLQMNSLKTEDTAVYYCHYVHYASASTVLPAFGVDAWGQGTTVTVSS
VL: DIVMTQSPLSLPVTPGEPASISCQTSQELVHMNRNTYLHWYQQKPGQAPRLLIYKVSNRFPGVPDRFSGSGSGTDFTLKISRVEAEDVGVYYCAQGTSVPFTFGQGTKLEIK
B7: H183/L072 VL A25S (antibody, name in Kabat numbering, V domains shown)
VH: QVQLVESGGGLVQPGRSLRLSCAASGFTFSNAWMHWVRQAPGKGLEWVAQIKDKGNAYAAYYAPSVKGRFTISRDDSKNSIYLQMNSLKTEDTAVYYCHYVHYASASTVLPAFGVDAWGQGTTVTVSS
VL: DIVMTQSPLSLPVTPGEPASISCQSSQELVHMNRNTYLHWYQQKPGQAPRLLIYKVSNRFPGVPDRFSGSGSGTDFTLKISRVEAEDVGVYYCAQGTSVPFTFGQGTKLEIK
B8: H183/L072 VL A89Q (antibody, name in Kabat numbering, V domains shown)
VH: QVQLVESGGGLVQPGRSLRLSCAASGFTFSNAWMHWVRQAPGKGLEWVAQIKDKGNAYAAYYAPSVKGRFTISRDDSKNSIYLQMNSLKTEDTAVYYCHYVHYASASTVLPAFGVDAWGQGTTVTVSS
VL: DIVMTQSPLSLPVTPGEPASISCQASQELVHMNRNTYLHWYQQKPGQAPRLLIYKVSNRFPGVPDRFSGSGSGTDFTLKISRVEAEDVGVYYCQQGTSVPFTFGQGTKLEIK
B9: H183/L072 VL A89F (antibody, name in Kabat numbering, V domains shown)
VH: QVQLVESGGGLVQPGRSLRLSCAASGFTFSNAWMHWVRQAPGKGLEWVAQIKDKGNAYAAYYAPSVKGRFTISRDDSKNSIYLQMNSLKTEDTAVYYCHYVHYASASTVLPAFGVDAWGQGTTVTVSS
VL: DIVMTQSPLSLPVTPGEPASISCQASQELVHMNRNTYLHWYQQKPGQAPRLLIYKVSNRFPGVPDRFSGSGSGTDFTLKISRVEAEDVGVYYCFQGTSVPFTFGQGTKLEIK
B10: H183/L072 VL A89G (antibody, name in Kabat numbering, V domains shown)
VH: QVQLVESGGGLVQPGRSLRLSCAASGFTFSNAWMHWVRQAPGKGLEWVAQIKDKGNAYAAYYAPSVKGRFTISRDDSKNSIYLQMNSLKTEDTAVYYCHYVHYASASTVLPAFGVDAWGQGTTVTVSS
VL: DIVMTQSPLSLPVTPGEPASISCQASQELVHMNRNTYLHWYQQKPGQAPRLLIYKVSNRFPGVPDRFSGSGSGTDFTLKISRVEAEDVGVYYCGQGTSVPFTFGQGTKLEIK
B11: H183/L072 VL A89D (antibody, name in Kabat numbering, V domains shown)
VH: QVQLVESGGGLVQPGRSLRLSCAASGFTFSNAWMHWVRQAPGKGLEWVAQIKDKGNAYAAYYAPSVKGRFTISRDDSKNSIYLQMNSLKTEDTAVYYCHYVHYASASTVLPAFGVDAWGQGTTVTVSS
VL: DIVMTQSPLSLPVTPGEPASISCQASQELVHMNRNTYLHWYQQKPGQAPRLLIYKVSNRFPGVPDRFSGSGSGTDFTLKISRVEAEDVGVYYCDQGTSVPFTFGQGTKLEIK
B12: H183/L072 VL A25I (antibody, name in Kabat numbering, V domains shown)
VH: QVQLVESGGGLVQPGRSLRLSCAASGFTFSNAWMHWVRQAPGKGLEWVAQIKDKGNAYAAYYAPSVKGRFTISRDDSKNSIYLQMNSLKTEDTAVYYCHYVHYASASTVLPAFGVDAWGQGTTVTVSS
VL: DIVMTQSPLSLPVTPGEPASISCQISQELVHMNRNTYLHWYQQKPGQAPRLLIYKVSNRFPGVPDRFSGSGSGTDFTLKISRVEAEDVGVYYCAQGTSVPFTFGQGTKLEIK
B13: H183/L072 VL A25K (antibody, name in Kabat numbering, V domains shown)
VH: QVQLVESGGGLVQPGRSLRLSCAASGFTFSNAWMHWVRQAPGKGLEWVAQIKDKGNAYAAYYAPSVKGRFTISRDDSKNSIYLQMNSLKTEDTAVYYCHYVHYASASTVLPAFGVDAWGQGTTVTVSS
VL: DIVMTQSPLSLPVTPGEPASISCQKSQELVHMNRNTYLHWYQQKPGQAPRLLIYKVSNRFPGVPDRFSGSGSGTDFTLKISRVEAEDVGVYYCAQGTSVPFTFGQGTKLEIK
B14: H183/L072 VL A89H (antibody, name in Kabat numbering, V domains shown)
VH: QVQLVESGGGLVQPGRSLRLSCAASGFTFSNAWMHWVRQAPGKGLEWVAQIKDKGNAYAAYYAPSVKGRFTISRDDSKNSIYLQMNSLKTEDTAVYYCHYVHYASASTVLPAFGVDAWGQGTTVTVSS
VL: DIVMTQSPLSLPVTPGEPASISCQASQELVHMNRNTYLHWYQQKPGQAPRLLIYKVSNRFPGVPDRFSGSGSGTDFTLKISRVEAEDVGVYYCHQGTSVPFTFGQGTKLEIK
B15: H183/L072 VL A25M (antibody, name in Kabat numbering, V domains shown)
VH: QVQLVESGGGLVQPGRSLRLSCAASGFTFSNAWMHWVRQAPGKGLEWVAQIKDKGNAYAAYYAPSVKGRFTISRDDSKNSIYLQMNSLKTEDTAVYYCHYVHYASASTVLPAFGVDAWGQGTTVTVSS
VL: DIVMTQSPLSLPVTPGEPASISCQMSQELVHMNRNTYLHWYQQKPGQAPRLLIYKVSNRFPGVPDRFSGSGSGTDFTLKISRVEAEDVGVYYCAQGTSVPFTFGQGTKLEIK
B16: H183/L072 VL A25R (antibody, name in Kabat numbering, V domains shown)
VH: QVQLVESGGGLVQPGRSLRLSCAASGFTFSNAWMHWVRQAPGKGLEWVAQIKDKGNAYAAYYAPSVKGRFTISRDDSKNSIYLQMNSLKTEDTAVYYCHYVHYASASTVLPAFGVDAWGQGTTVTVSS
VL: DIVMTQSPLSLPVTPGEPASISCQRSQELVHMNRNTYLHWYQQKPGQAPRLLIYKVSNRFPGVPDRFSGSGSGTDFTLKISRVEAEDVGVYYCAQGTSVPFTFGQGTKLEIK
B17: H183/L072 VL A25P (antibody, name in Kabat numbering, V domains shown)
VH: QVQLVESGGGLVQPGRSLRLSCAASGFTFSNAWMHWVRQAPGKGLEWVAQIKDKGNAYAAYYAPSVKGRFTISRDDSKNSIYLQMNSLKTEDTAVYYCHYVHYASASTVLPAFGVDAWGQGTTVTVSS
VL: DIVMTQSPLSLPVTPGEPASISCQPSQELVHMNRNTYLHWYQQKPGQAPRLLIYKVSNRFPGVPDRFSGSGSGTDFTLKISRVEAEDVGVYYCAQGTSVPFTFGQGTKLEIK
B18: H183/L072 VL A89E (antibody, name in Kabat numbering, V domains shown)
VH: QVQLVESGGGLVQPGRSLRLSCAASGFTFSNAWMHWVRQAPGKGLEWVAQIKDKGNAYAAYYAPSVKGRFTISRDDSKNSIYLQMNSLKTEDTAVYYCHYVHYASASTVLPAFGVDAWGQGTTVTVSS
VL: DIVMTQSPLSLPVTPGEPASISCQASQELVHMNRNTYLHWYQQKPGQAPRLLIYKVSNRFPGVPDRFSGSGSGTDFTLKISRVEAEDVGVYYCEQGTSVPFTFGQGTKLEIK
B19: H183/L072 VL A89M (antibody, name in Kabat numbering, V domains shown)
VH: QVQLVESGGGLVQPGRSLRLSCAASGFTFSNAWMHWVRQAPGKGLEWVAQIKDKGNAYAAYYAPSVKGRFTISRDDSKNSIYLQMNSLKTEDTAVYYCHYVHYASASTVLPAFGVDAWGQGTTVTVSS
VL: DIVMTQSPLSLPVTPGEPASISCQASQELVHMNRNTYLHWYQQKPGQAPRLLIYKVSNRFPGVPDRFSGSGSGTDFTLKISRVEAEDVGVYYCMQGTSVPFTFGQGTKLEIK
B20: H183/L072 VL A25Q (antibody, name in Kabat numbering, V domains shown)
VH: QVQLVESGGGLVQPGRSLRLSCAASGFTFSNAWMHWVRQAPGKGLEWVAQIKDKGNAYAAYYAPSVKGRFTISRDDSKNSIYLQMNSLKTEDTAVYYCHYVHYASASTVLPAFGVDAWGQGTTVTVSS
VL: DIVMTQSPLSLPVTPGEPASISCQQSQELVHMNRNTYLHWYQQKPGQAPRLLIYKVSNRFPGVPDRFSGSGSGTDFTLKISRVEAEDVGVYYCAQGTSVPFTFGQGTKLEIK

Target: T1, Human CD3eg linker (human)
T1 construct: Single-chain construct; also called recombinant human CD3
T1 chain: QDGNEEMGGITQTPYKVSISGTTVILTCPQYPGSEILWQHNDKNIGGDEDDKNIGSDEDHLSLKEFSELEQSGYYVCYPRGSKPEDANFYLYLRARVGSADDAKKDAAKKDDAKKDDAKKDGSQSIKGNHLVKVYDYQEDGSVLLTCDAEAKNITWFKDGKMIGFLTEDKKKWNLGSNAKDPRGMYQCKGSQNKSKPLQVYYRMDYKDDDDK
Experiment: SPR; fold vs parent H183/L072

Binder | fold change of affinity [fold]
B1 | 0.9
B2 | 1.1
B3 | 0.5
B4 | 0.9
B5 | 0
B6 | 1.1
B7 | 1.3
B8 | 0.2
B9 | 0.2
B10 | 0.7
B11 | 0
B12 | 0.3
B13 | 0
B14 | 0
B15 | 0
B16 | 0
B17 | 1.2
B18 | 0
B19 | 0.1
B20 | 0
